The chains are these.
B1: VacW-209 (antibody, V domains shown)
VH: QVQLVESGGGVVQPGRSLRLSCAASGFTFSSIAMHWVRQAPGKGLEWVAVMSFDGSIKYYGDSVKGRFTISRDNSKSTLYLQMNSLRAEDTAVYYCARGVQGYYDRSGYYNLDYNYGMDVWGQGTTVTVSS
VL: QSVLTQPPSVSGAPGQRVTISCTGSSSNIGAGYDVHWYQQLPGTAPKLLIYGNSNRPSGVPDRFSGSKSGTSASLAITGLQAEDEADYYCQSYDSSLSGWVFGGGTKLTVL
B2: VacW-105 (antibody, V domains shown)
VH: QVQLVQSGAEVKKPGSSVKVSCKASGGTFRSYTISWVRQAPGQGLEWMGRILPILGIANYAQKFQGRVTITADKSTSTAYMELSSLRSEDTAVYYCARVTGAPVESAAWFDPWGQGTLVTVSS
VL: not shown
B3: VacW-138 (antibody, V domains shown)
VH: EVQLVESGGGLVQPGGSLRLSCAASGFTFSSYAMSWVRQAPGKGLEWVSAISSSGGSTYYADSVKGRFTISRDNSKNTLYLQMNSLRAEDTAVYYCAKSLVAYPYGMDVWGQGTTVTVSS
VL: AIQLTQSPFSLSASVGDRVTITCRASQGISSALAWYQQKPGKAPKLLIYDASSLESGVPSRFSGSGSGTDFTLTISSLQPEDFATYFCQQVDTYQFTFGPGTKVDIK
B4: VacW-201 (antibody, V domains shown)
VH: EVQLVESGGGLVQPGGSLRLSCAASGFTFSSYWMNWVRQAPGKGLEWVANIKQDGSEKYYVDSVKGRFTISRDNAKNSLYLQMNSLRAEDTAVYYCARMEYPYGGVDYWGQGTLVTVSS
VL: NFMLTQPHSVSESPGKTVTISCTGSSGSIASNYVQWYQQRPGSAPTTVIYEDNQRPSGVPDRFSGSIDSSSNSASLTISGLKTEDEADYYCQSYDSSNRNWVFGGGTKLTVL
B5: VacW-215 (antibody, V domains shown)
VH: EVQLVESGGGLIQPGGSLRLSCAASGFTVSSNYMSWVRQAPGKGLEWVSVIYSGGSTYYADSVKGRFTISRDNSKNTLYLQMNSLRAEDTAVYYCARSTWLRGGFDYWGQGTLVTVSS
VL: B4 VL with R99H, N100F, W101Y, G105T, L109V
B6: VacW-212 (antibody, V domains shown)
VH: B4 VH with G55E, Y80F, A88V, V106I, S119A
VL: B4 VL

Residue numbers refer to the chain shown, from its start.

One test addresses SARS-CoV-2 wild-type spike protein (on pseudovirus) (SARS-CoV-2, UniProt P0DTC2 14-1273). As to the kind of experiment: cell-based or functional assay.
For the molecule B1, the “假病毒中和试验 IC50” value stood at 0.03 µg/mL.

The target in the next test is T1, SARS-CoV-2 wild-type RBD protein (SARS-CoV-2, UniProt P0DTC2 319-541).
T1 construct: domain: RBD
Nature of the test: SPR, Biacore 8K, RBD on CM5 chip, IgG injected, 1:1 model.
B2: the Kd (usually the constant that tells how readily two partners part at equilibrium) came to 1.64 nM. The same measure, in the same setting: the result for B3 reads 1.1 nM; that for B4, 0.88 nM; that for B5, 0.405 nM.

On to B6, for which binding was put at a Kd of 0.653 nM.

As for B1, the affinity, expressed as Kd, was 0.0113 nM.

The record behind these values is patent CN113912709A (SHENZHEN NATIONAL CLINICAL RES CENTER FOR INFECTIOUS …, dated 2022).
